According to patent US20050215509:

T1: recombinant SCCA-1 with a polyhistidine tag (6x His), P29508
T1 chain: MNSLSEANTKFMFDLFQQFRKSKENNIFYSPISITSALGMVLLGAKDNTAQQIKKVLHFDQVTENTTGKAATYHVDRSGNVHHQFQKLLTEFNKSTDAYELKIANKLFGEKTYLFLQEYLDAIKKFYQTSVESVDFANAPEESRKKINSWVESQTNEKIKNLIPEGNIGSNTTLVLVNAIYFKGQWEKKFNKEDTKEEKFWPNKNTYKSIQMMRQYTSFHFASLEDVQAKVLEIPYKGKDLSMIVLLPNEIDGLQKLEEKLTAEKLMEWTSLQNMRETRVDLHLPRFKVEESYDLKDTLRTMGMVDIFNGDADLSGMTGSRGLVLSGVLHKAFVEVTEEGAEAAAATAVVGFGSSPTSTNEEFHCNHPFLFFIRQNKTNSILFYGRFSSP


Target: T1, recombinant SCCA-1 with a polyhistidine …

Row | Protein | amount of phosphorylated c-Jun (in vitro pull-down JNK kinase assay on c-Jun fused protein beads, western blot with anti-phosphorylated c-Jun antibody)
1 | active recombinant phosphorylated JNK-2 (Cell Signaling) (protein) MSDSKCDSQFYSVQVADSTFTVLKRYQQLKPIGSGAQGIVCAAFDTVLGINVAVKKLSRPFQNQTHAKRAYRELVLLKCVNHKNIISLLNVFTPQKTLEEFQDVYLVMELMDANLCQVIHMELDHERMSYLLYQMLCGIKHLHSAGIIHRDLKPSNIVVKSDCTLKILDFGLARTACTNFMMTPYVVTRYYRAPEVILGMGYKENVDIWSVGCIMGELVKGCVIFQGTDHIDQWNKVIEQLGTPSAEFMKKLQPTVRNYVENRPKYPGIKFEELFPDWIFPSESERDKIKTSQARDLLSKMLVIDPDKRISVDEALRHPYITVWYDPAEAEAPPPQIYDAQLEEREHAIEEWKELIYKEVMDWEERSKNGVVKDQPSDAAVSSNATPSQSSSINDISSMSTEQTLASDTDSSLDASTGPLEGCR | in the case of incubating SCCA-1 with active JNK-2, there was no significant decrease in the amount of phosphorylated c-Jun observed as compared with the control
2 | active recombinant phosphorylated JNK-1 (Cell Signaling) (protein) MSRSKRDNNFYSVEIGDSTFTVLKRYQNLKPIGSGAQGIVCAAYDAILERNVAIKKLSRPFQNQTHAKRAYRELVLMKCVNHKNIIGLLNVFTPQKSLEEFQDVYIVMELMDANLCQVIQMELDHERMSYLLYQMLCGIKHLHSAGIIHRDLKPSNIVVKSDCTLKILDFGLARTAGTSFMMTPYVVTRYYRAPEVILGMGYKENVDLWSVGCIMGEMVCHKILFPGRDYIDQWNKVIEQLGTPCPEFMKKLQPTVRTYVENRPKYAGYSFEKLFPDVLFPADSEHNKLKASQARDLLSKMLVIDASKRISVDEALQHPYINVWYDPSEAEAPPPKIPDKQLDEREHTIEEWKELIYKEVMDLEERTKNGVIRGQPSPLAQVQQ | in the case of incubating SCCA-1 with active JNK-1, the amount of phosphorylated c-Jun decreased remarkably as compared with the control not containing SCCA-1
